Results as given in paper doi:10.1101/2024.10.04.616715 (bioRxiv, 2024).

Target: the molecule itself
Assay: cryo-EM structure

B1: human XPR1 (Xenotropic and Polytropic Retrovirus Receptor 1) (natural protein, UniProt Q9UBH6 1-696, looked up)
chain: MKFAEHLSAHITPEWRKQYIQYEAFKDMLYSAQDQAPSVEVTDEDTVKRYFAKFEEKFFQTCEKELAKINTFYSEKLAEAQRRFATLQNELQSSLDAQKESTGVTTLRQRRKPVFHLSHEERVQHRNIKDLKLAFSEFYLSLILLQNYQNLNFTGFRKILKKHDKILETSRGADWRVAHVEVAPFYTCKKINQLISETEAVVTNELEDGDRQKAMKRLRVPPLGAAQPAPAWTTFRVGLFCGIFIVLNITLVLAAVFKLETDRSIWPLIRIYRGGFLLIEFLFLLGINTYGWRQAGVNHVLIFELNPRSNLSHQHLFEIAGFLGILWCLSLLACFFAPISVIPTYVYPLALYGFMVFFLINPTKTFYYKSRFWLLKLLFRVFTAPFHKVGFADFWLADQLNSLSVILMDLEYMICFYSLELKWDESKGLLPNNSEESGICHKYTYGVRAIVQCIPAWLRFIQCLRRYRDTKRAFPHLVNAGKYSTTFFMVTFAALYSTHKERGHSDTMVFFYLWIVFYIISSCYTLIWDLKMDWGLFDKNAGENTFLREEIVYPQKAYYYCAIIEDVILRFAWTIQISITSTTLLPHSGDIIATVFAPLEVFRRFVWNFFRLENEHLNNCGEFRAVRDISVAPLNADDQTLLEQMMDQDDGVRNRQKNRSWKYNQSISLRRPRLASQSKARDTKVLIEDTDDEANT
stoichiometry N: 2
